Measured values from PMC8999711.
pKd: −log10 of the molar value.

Biological target: ActR-IIB extracellular domain (type II receptor ectodomain) (UniProt Q13705)
Assay: SPR; Reichert4SPR; biotinylated receptor ectodomains immobilised on a streptavidin-coated CMD200 chip (350-500 RU); BMP2 ligands as analytes, six concentrations from 160 nM (log 2 dilution series); 25 °C; 10 mM HEPES pH 7.4, 500 mM NaCl, 3.4 mM EDTA, 0.005% Tween-20; 10 μL/min; 1:1 Langmuir global fit; apparent KD, mean of two independent experiments

Sequence of UniProt Q13705 (Q13705 19-137): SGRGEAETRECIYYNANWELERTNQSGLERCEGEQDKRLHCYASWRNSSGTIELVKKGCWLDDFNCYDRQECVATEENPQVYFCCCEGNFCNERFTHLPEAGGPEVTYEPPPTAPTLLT

pKd: 7.94
Substance: BMP2 Azide (BMP2 variant with H-L-Lys(EO-N3)-OH at position 83 of each chain) (ligand)
